Measured values from publication PMC12168268, “Targeted inhibition of Ninjurin2 promotes chemosensitivity in chemoresistant gastric cancer by suppressing cancer-initiating cells” (Biomarker Research, 2025).

Molecular target: T1, recombinant human Periostin (human, UniProt Q15063 22-836)
T1 construct: Periostin, human, recombinant; source: bought: Sino Biological
T1 sequence (looked up): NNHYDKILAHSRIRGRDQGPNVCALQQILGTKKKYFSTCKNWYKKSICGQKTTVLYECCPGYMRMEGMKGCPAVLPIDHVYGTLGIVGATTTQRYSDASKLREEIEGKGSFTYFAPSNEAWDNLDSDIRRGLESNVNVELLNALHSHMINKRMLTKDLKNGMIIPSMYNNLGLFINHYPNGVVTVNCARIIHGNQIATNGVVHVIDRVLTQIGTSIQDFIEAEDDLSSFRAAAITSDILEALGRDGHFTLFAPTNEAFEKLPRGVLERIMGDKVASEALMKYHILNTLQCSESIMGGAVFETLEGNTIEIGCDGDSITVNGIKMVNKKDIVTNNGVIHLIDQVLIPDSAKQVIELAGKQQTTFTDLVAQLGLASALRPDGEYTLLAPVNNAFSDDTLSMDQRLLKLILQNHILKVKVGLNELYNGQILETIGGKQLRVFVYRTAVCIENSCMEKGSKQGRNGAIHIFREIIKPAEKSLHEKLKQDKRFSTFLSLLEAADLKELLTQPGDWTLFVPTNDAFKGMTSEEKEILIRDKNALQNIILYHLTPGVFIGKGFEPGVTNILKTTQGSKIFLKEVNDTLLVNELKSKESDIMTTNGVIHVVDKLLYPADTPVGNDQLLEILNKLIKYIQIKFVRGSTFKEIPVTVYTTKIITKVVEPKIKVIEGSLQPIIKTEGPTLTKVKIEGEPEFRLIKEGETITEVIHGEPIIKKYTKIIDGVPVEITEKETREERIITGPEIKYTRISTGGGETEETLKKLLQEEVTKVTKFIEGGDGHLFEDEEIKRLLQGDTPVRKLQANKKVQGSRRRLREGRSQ
Assay: SPR; Biacore 3000; NINJ2 extracellular domain immobilised by amine coupling on a carboxymethyldextran chip (CMD200M); periostin injected at 231, 116, 58, 29 and 14 nM, 30 µL/min, 2 min association, 5 min dissociation; HBS-T (10 mM HEPES, 150 mM NaCl, 0.005% Tween20) pH 7.4
Settings: both partners purified

Kd: 16.9 nM
B1: extracellular domain (Met1-Thr65) of recombinant human NINJ2 (domain or fragment, UniProt Q9NZG7 1-65, looked up)
chain: MESARENIDLQPGSSDPRSQPINLNHYATKKSVAESMLDVALFMSNAMRLKAVLEQGPSSHYYTT
notes: Ninjurin-2 (NINJ2), human, extracellular domain, residues Met1-Thr65; also called NINJ2 extracellular domain; source: bought: R&D Systems
